Results taken from the RNAGym collection of RNA variant scans (doi:10.1073/pnas.2313332121).

B1: TPR t1 (parent)
chain: GACCAAUCUGCCCUCAGAGCUCGAGAACAUCUUCGGAUGCAGAGGAGGCAGGCUUCGGUGGCGCGAUAGCGCCAACGUCCUCAACCUCCAAUGCAUCCCACCACAUGAUGAUGCCUGAAGAGCCUUGGUUUUUUG

Variants of: B1
Assay: polymerase ribozyme fitness, log enrichment relative to wild type (log ratio); higher = more active; in vitro selection for triplet polymerase activity
Outline: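 The heterodimeric triplet polymerase ribozyme's subunits were each mutagenized into PCR-built libraries and transcribed. Every library was selected once, in triplicate, by annealing with a biotinylated primer, the partner subunit and triplets, incubating frozen at −7 °C, gel-excising extended constructs, capturing on streptavidin beads and running RT-PCR. Input and output libraries were Illumina-sequenced, with genotypes kept only at ≥10 input reads and ≥1 read per output. Fitness, from inverse-variance-weighted replicate averages, is the base-2 logarithm of genotype enrichment over wild-type enrichment.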
In the case of C4A G45A G52C, the “polymerase ribozyme fitness (log ratio)” value is reported as -2.98.
With C4U G120C the “polymerase ribozyme fitness (log ratio)” value was -0.0314.
With C4G C8A C80U C115A G120A U125A the “polymerase ribozyme fitness (log ratio)” value was -2.71.
For C4U C15U A43U A46U, the “polymerase ribozyme fitness (log ratio)” value was -3.46.
With A5G G93A the “polymerase ribozyme fitness (log ratio)” value was -1.17.
With A5U C49A the “polymerase ribozyme fitness (log ratio)” value was -2.06.
For C4G U9C C15A U55C C73A C79G, the “polymerase ribozyme fitness (log ratio)” value was -2.6.
In the case of C4A C104A, the “polymerase ribozyme fitness (log ratio)” value is reported as -2.32.
In the case of A5U C86A, the “polymerase ribozyme fitness (log ratio)” value is reported as -0.495.
In the case of A5C A24G U87C, the “polymerase ribozyme fitness (log ratio)” value is reported as -3.15.
In the case of C4A C86A, the “polymerase ribozyme fitness (log ratio)” value is reported as -2.74.
In the case of C4A C86G, the “polymerase ribozyme fitness (log ratio)” value is reported as -2.58.
In the case of C4U U129A, the “polymerase ribozyme fitness (log ratio)” value is reported as -2.07.
In the case of A5U C53U C64U U106A, the “polymerase ribozyme fitness (log ratio)” value is reported as -0.639.
For A5G C94A U129G, the “polymerase ribozyme fitness (log ratio)” value was -1.49.
With A5C A24G A27G the “polymerase ribozyme fitness (log ratio)” value was -4.69.
With C4U U9C A41U the “polymerase ribozyme fitness (log ratio)” value was -0.927.
In the case of C4A U55C, the “polymerase ribozyme fitness (log ratio)” value is reported as -2.5.
With C4U C72A A91G G117C the “polymerase ribozyme fitness (log ratio)” value was -5.33.
In the case of C4G U7G C13U G113A, the “polymerase ribozyme fitness (log ratio)” value is reported as -1.14.
In the case of A5C A6U A50U C56U A121U, the “polymerase ribozyme fitness (log ratio)” value is reported as 1.17.
For C4G G69C G127A, the “polymerase ribozyme fitness (log ratio)” value was -2.67.
In the case of C4U U9C C34G A100U, the “polymerase ribozyme fitness (log ratio)” value is reported as -4.68.
With A5C C13U C88A C123U the “polymerase ribozyme fitness (log ratio)” value was 1.09.
For A5G A95U A121C G128A U130C, the “polymerase ribozyme fitness (log ratio)” value was -0.519.
With A5G C15U G48U C104U C124A the “polymerase ribozyme fitness (log ratio)” value was -0.12.
With C4U C13A A46U G52U C73A the “polymerase ribozyme fitness (log ratio)” value was -4.74.
With C4A U21G G44U C82A C124G the “polymerase ribozyme fitness (log ratio)” value was -3.89.
For A5U C8G C15A A41U G48A C49U G113A U129C, the “polymerase ribozyme fitness (log ratio)” value was -5.44.
With C4U G35U C62U C98A C123G the “polymerase ribozyme fitness (log ratio)” value was -2.75.
For C4G U9G G23A G113C, the “polymerase ribozyme fitness (log ratio)” value was -4.79.
In the case of A5C C28A G47U C53G G93U, the “polymerase ribozyme fitness (log ratio)” value is reported as -7.47.
For A5C U112A C114A, the “polymerase ribozyme fitness (log ratio)” value was -1.8.
In the case of A5G G77U G113U G122C, the “polymerase ribozyme fitness (log ratio)” value is reported as -3.27.
For C4A G36C G42C C49A C124U, the “polymerase ribozyme fitness (log ratio)” value was -4.12.
With C4U C11G C49U G51A C80U C94G the “polymerase ribozyme fitness (log ratio)” value was -2.25.
For A5U A95C G120C, the “polymerase ribozyme fitness (log ratio)” value was 0.108.
With A5U C11G C12U G61U A111C G113A the “polymerase ribozyme fitness (log ratio)” value was -4.88.
With C4U the “polymerase ribozyme fitness (log ratio)” value was -0.513.
For C4G, the “polymerase ribozyme fitness (log ratio)” value was -1.33.
In the case of C4U C11A C13U A16C U30G C49A C64G C102G U112G C115A, the “polymerase ribozyme fitness (log ratio)” value is reported as -7.83.
For A5C U7A C8A C80U, the “polymerase ribozyme fitness (log ratio)” value was -1.09.
In the case of C4U C31U G61U C98G C101A C114U, the “polymerase ribozyme fitness (log ratio)” value is reported as -6.59.
In the case of C4A G52A C53A C72U A90U U130C, the “polymerase ribozyme fitness (log ratio)” value is reported as -3.37.
With C4G G44U U96A the “polymerase ribozyme fitness (log ratio)” value was -4.42.
With C4U U9G U54C C76A the “polymerase ribozyme fitness (log ratio)” value was -0.732.
With C4G G69A the “polymerase ribozyme fitness (log ratio)” value was -2.97.
In the case of A5G C12A C73A, the “polymerase ribozyme fitness (log ratio)” value is reported as -0.594.
For C4G C73A A91U, the “polymerase ribozyme fitness (log ratio)” value was -3.63.
For C4G U129C, the “polymerase ribozyme fitness (log ratio)” value was -1.99.
For C4G G39U, the “polymerase ribozyme fitness (log ratio)” value was -3.24.
For C4U C8G C34G A46U U59G C62U C102U G113U A121C U131G, the “polymerase ribozyme fitness (log ratio)” value was -6.55.
For C4U C11U C104U C115A, the “polymerase ribozyme fitness (log ratio)” value was -2.94.
For C4A U59C G69U C115U, the “polymerase ribozyme fitness (log ratio)” value was -3.99.
With A5G C12G G42U the “polymerase ribozyme fitness (log ratio)” value was -0.303.
For C4G A24C A100C U112A U116G, the “polymerase ribozyme fitness (log ratio)” value was -5.42.
With A5U C11G A29U the “polymerase ribozyme fitness (log ratio)” value was -3.66.
In the case of A5G G44A, the “polymerase ribozyme fitness (log ratio)” value is reported as -0.648.
In the case of A5C U106A, the “polymerase ribozyme fitness (log ratio)” value is reported as -0.572.
For A5C C53A G71U C98U U112A G120U, the “polymerase ribozyme fitness (log ratio)” value was -6.47.
With A5U A6U A46C C104U C123A the “polymerase ribozyme fitness (log ratio)” value was 0.565.
With A5C U55G the “polymerase ribozyme fitness (log ratio)” value was -0.672.
For A5G C8U U54A A111U, the “polymerase ribozyme fitness (log ratio)” value was -2.21.
For C4G G44C, the “polymerase ribozyme fitness (log ratio)” value was -2.96.
With A5C C12G U14A G63U the “polymerase ribozyme fitness (log ratio)” value was -2.95.
With C4A U7A the “polymerase ribozyme fitness (log ratio)” value was -0.986.
In the case of C4G A111U, the “polymerase ribozyme fitness (log ratio)” value is reported as -3.42.
For A5U C12U, the “polymerase ribozyme fitness (log ratio)” value was 0.00871.
For A5U A91C U96G A121G, the “polymerase ribozyme fitness (log ratio)” value was -0.932.
With C4G G39A C40U G93A C102A the “polymerase ribozyme fitness (log ratio)” value was -3.57.
In the case of A5C A50C U96G, the “polymerase ribozyme fitness (log ratio)” value is reported as -1.64.
In the case of C4A C72U, the “polymerase ribozyme fitness (log ratio)” value is reported as -1.93.
With A5G A6G G52A A83U the “polymerase ribozyme fitness (log ratio)” value was -2.69.
For A5C C62U C72G C101G U106G U129C, the “polymerase ribozyme fitness (log ratio)” value was -5.17.
For C4U G52C, the “polymerase ribozyme fitness (log ratio)” value was -0.368.
In the case of A5G G60A G120U, the “polymerase ribozyme fitness (log ratio)” value is reported as 0.955.
In the case of C4G G110A, the “polymerase ribozyme fitness (log ratio)” value is reported as -2.16.
In the case of A5G A43G C56U C80U, the “polymerase ribozyme fitness (log ratio)” value is reported as -2.61.
With C4A U78C the “polymerase ribozyme fitness (log ratio)” value was -1.45.
With A5C G42U G61C U78G C80A A84U C104G G113C A119U U125C U133A the “polymerase ribozyme fitness (log ratio)” value was -7.58.
For C4A G23A A50G G61C U87C A95G G117U C123G, the “polymerase ribozyme fitness (log ratio)” value was -6.54.
With A5U A18C G57U the “polymerase ribozyme fitness (log ratio)” value was -2.21.
For A5U C13A C28U C49U C56U G120C G135U, the “polymerase ribozyme fitness (log ratio)” value was -5.49.
With C4G G44A G60C A111G the “polymerase ribozyme fitness (log ratio)” value was -3.78.
